Results reported in the supplement of paper PMC9170038.

System: K4 kissing-loop RNA reporter
Test: apparent KD of K4 kissing-loop reporter; higher = weaker reporter binding
Settings: Eterna round: R107
Description: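 RNA-MaP round R107: designed RNA switches with theophylline, tryptophan, arginine or FMN aptamers are transcribed on-chip within common flanks. They are titrated with a labelled K4 kissing-loop RNA reporter in RNA-MaP buffer (100 mM Tris pH 7.5, 80 mM KCl, 4 mM MgCl2), without ligand or with the indicated ligand. Median apparent KD per design.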

[1] = input ligand: theophylline 20 uM
[2] = input ligand: tryptophan 2.4 mM
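Note: bound reporter read as fluorescence of individual clusters on recovered sequencing chips by microscopy, with normalized cluster intensities fitted with a binding model.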

Row | Sequence | apparent KD of K4 kissing-loop reporter (input ligand: FMN 200 uM) | apparent KD of K4 kissing-loop reporter (input ligand: arginine 13.2 mM) | apparent KD of K4 kissing-loop reporter (input ligand: none) | apparent KD of K4 kissing-loop reporter [1] | apparent KD of K4 kissing-loop reporter [2]
1 | UAAGUCUUAUCGGCCGCCACUCAUUACACGAAGUGAUGUUUCGGGUUUUAGACAAAUAAUUUUUGGAGGACCGGGAUACGAGAAA [theeternabot_sameState_KL_Trp_B_49] | 162 nM | 113 nM | 139 nM | 148 nM | 114 nM
2 | UAAUAAAUUCCAGCGAUAUCGCUCUUCGAAGGAGCGGGCGAAAGUCCAGGUAGGUCGCGGAGAGUGAUGUUCUUUGCGGCGCUGG [whbob_Ex_Arginine_A_2t134] | 408 nM | 315 nM | 400 nM | 407 nM | 244 nM
3 | UAAUCCUAGUGAUAAUAAUCAAGUGGUGGGCGAGGACCGGUACGGCCGCCACUCGAAAAUGCAGUGAUGUUGUAAUCCGGAUAAU [Exclusion - Tryptophan A (Freestyle 5)] | 798 nM | 874 nM | 1080 nM | 872 nM | 450 nM
4 | UAAUCCUAGUGAUAAUAAUCAAGUGGUGGGCGAGGACCGGUACGGCCGCCACUCGAAUAUGCAGUGAUGUUGUAAUCCGGAUAAU [Exclusion - Tryptophan A (Freestyle 6)] | 667 nM | 926 nM | 919 nM | 894 nM | 594 nM
5 | UAAUGCAUGACGGCCGCCACUAGUACUGGAGUGAUGUUGUGGUACGGCGGCAGUAUAGGGUGGACUAGGACCGGGUCAUGCAUAU [KL-XTryp-B11 #analogue] | 598 nM | 443 nM | 597 nM | 547 nM | 567 nM
6 | UAAUUUAUGUCUUUAAUAUAAUUUUCAGAUACCAGUGAUUAUUAACACCCUUGGCAGCUGUAUAGAGUGAUGUUCUUAUGCUUAA [JR_ExcTheophyA_Sub009] | 213 nM | 314 nM | 237 nM | 321 nM | 156 nM
7 | UAAUUUAUUUCUUUUAUAUAAUAAUCAGAUACCAGUGAUUAAUGUCACCCUUGGCAGCUGUAUAGAGUGAUGUUCUAAUGCUUAA [JR_SSTheophyA_Sub022] | 176 nM | 169 nM | 142 nM | 233 nM | 147 nM
8 | UACAUAUCACUUUUUCUACAAUUAUUUAGUCAGGAUAUCGAUUAAACGAGAAGGGACAUUAUCAAGUGAUGUUUGAUAAUUCAAA [JR_Nu_SSFMNA_Sub028] | 156 nM | 129 nM | 118 nM | 159 nM | 124 nM
9 | UACCUAUUAUUAACACUAUAUACAACUGAAGGAGCGACAAUAAAGUCAGGUAGGUCGCAGAAUUAAUGAGUGAUGUUCAUUUUUA [JR_ExcArginiA_Sub014] | 84.3 nM | 136 nM | 95.3 nM | 110 nM | 59.7 nM
10 | UAGUCAUACAGAGGAUAUCGUAUGAGUGAUGUUCAUAUGCGUACAUCAACUUGAUGUACACCUAGACGAGAAGGCUGUAUGACUA [FMB B SS t6a] | 172 nM | 199 nM | 252 nM | 212 nM | 227 nM
11 | UAGUCCUAGUGAUCCUUAUCAAGUGGUGGGCGAGGACCGGUACGGCCGCCACUCGAAUAUGCAGUGAUGUUGUAAUCCGGAUAAU [Exclusion - Tryptophan A (Freestyle 10)] | 596 nM | 511 nM | 727 nM | 846 nM | 417 nM
12 | UAUGUACACUGGUAGUGGUACAUCGAGGAAGGAGCGUGCGCAGGCACAGGUAGGUCGCCUCAGCGCACGAGUGAUGUUCGUGGGC [Ceaqu] | 308 nM | 205 nM | 358 nM | 262 nM | 288 nM
13 | UAUUCUGUUCGAAAGAACGGAAUUUCGGAAGGAGCGCGAGAAAUCGCAGGUAGGUCGCCGAAAUUAUUAGGUAGUGAUGUUACCU [Arginine A K4 6] | 125 nM | 99.8 nM | 120 nM | 101 nM | 115 nM
14 | UCACGUGCCAGUGAUGUUGGCGUACGUGAUACCAGACGAAUAAAAGUCCCUUGGCAGCACAAAUAUGCCAAGUUAGAUGUAUGAU [Exclusion Theophylline A GF 2] | 125 nM | 122 nM | 121 nM | 116 nM | 116 nM
15 | UCCCGAGUGAUGUUUGGCUGAUGGAGUGAUACCAGUCCCUAGACUGACCCUUGGCAGCACGACUUGUACCAGGCGGAUCACCCUG [theeternabot_exclusion_KL_Theo_A_5] | 479 nM | 260 nM | 423 nM | 431 nM | 366 nM
16 | UCCUAGGCUCGAAAGAGCCUAGGAUUGACUCAGGAUAUCCGGAAACGGAGAAGGGAGUCACUAGUGAUGUUAGGGAUUCCCUAUU | 312 nM | 91.2 nM | 100 nM | 85.9 nM | 94.2 nM
17 | UCCUAUACCCUUCCCGGACGCCGUGGAGAUACCAGCCACGUAGCGGGCCCUUGGCAGCUCGAGUGAUGUUCGAGAUCGUCAGGAU [Veteve] | 136 nM | 124 nM | 127 nM | 128 nM | 135 nM
18 | UCCUGCAAUCCGCCACGAAAGUGGAUGGAUACCAGAGUCGAAAGACUCCCUUGGCAGCCAGUGAUGUUGGAAGCAGGUAAAUAAA | 819 nM | 645 nM | 715 nM | 656 nM | 596 nM
19 | UCCUGCAAUCUGCCACGAAAGUGGAUUGAUACCAGAGUCGAAAGACUCCCUUGGCAGCGAGUGAUGUUCGUAGCAGGUAAAUAAA [MatMod 6 - Jieux - Exclusion - Theophylline A] | 203 nM | 221 nM | 206 nM | 218 nM | 185 nM
20 | UCCUGCAAUCUGCCACGAAAGUGGAUUGAUACCAGAGUCGAAAGACUCCCUUGGCAGCGAGUGAUGUUCGUUGCAGGUAAAUAAA [MatMod 7 - Jieux - Exclusion - Theophylline A] | 181 nM | 178 nM | 175 nM | 170 nM | 149 nM
21 | UCGAAAUGCGUCUCCUAGUUUCUCCGGGAAGGAGCGUGGAUAACCGCAGGUAGGUCGCCCGGGAGCCGGACCAGUGAUGUUGGUC [Exclusion Arginine A Gf 30] | 181 nM | 211 nM | 197 nM | 207 nM | 164 nM
22 | UCGAACGAUGGAAGGAGCGCUCGUCAGUCCUGCGAGUGAUGUUCGUGGGUAAAUAGUCGCGAGCAGGUAGGUCGCCAUCUUGAGC [Indiermaar] | 130 nM | 120 nM | 131 nM | 128 nM | 125 nM
